From publication PMC8244287 (Current Research in Structural Biology, 2021)

Molecular target: the molecule itself
Experiment: SDS-PAGE

B1: BbZIP, zinc transporter from Bordetella bronchiseptica, full-length, N-terminal His6 (natural protein, UniProt A0A0H3LM39 1-309, looked up)
chain: MNQPSSLAADLRGAWHAQAQSHPLITLGLAASAAGVVLLLVAGIVNALTGENRVHVGYAVLGGAAGFAATALGALMALGLRAISARTQDAMLGFAAGMMLAASAFSLILPGLDAAGTIVGPGPAAAAVVALGLGLGVLLMLGLDYFTPHEHERTGHQGPEAARVNRVWLFVLTIILHNLPEGMAIGVSFATGDLRIGLPLTSAIAIQDVPEGLAVALALRAVGLPIGRAVLVAVASGLMEPLGALVGVGISSGFALAYPISMGLAAGAMIFVVSHEVIPETHRNGHETTATVGLMAGFALMMFLDTALG
stoichiometry N: 2
